Laboratory results: publication PMC3087862 (Nature structural & molecular biology, 2011)

Biological target: the molecule itself
Assay: SEC

B1: human Hsp90α two-domain construct MC (293-732) (domain or fragment)
chain: not shown
- stoichiometry N: 2

B2: human Hsp90α full-length protein without part of the N-M linker (Hsp90Δ; 1-732, 241-268 deleted) (natural protein)
chain: not shown
- stoichiometry N: 2
